What was measured:
[1] = target: the molecule itself; assay: self-assembly of tetramers; negative-stain EM of E. coli pellet
[2] = target: the molecule itself; assay: self-assembly of trimers; negative-stain EM of E. coli pellet
[3] = target: the molecule itself; assay: self-assembly of fusion trimers; negative-stain TEM of E. coli pellet
Experimental: Synthetic genes of each fusion were obtained and protein was expressed in Escherichia coli cells using a standard T7 based expression vector (Table 2). The protein expression was verified by sodium dodecyl sulfate polyacrylamide gel electrophoresis (SDS-PAGE) after separation of the soluble and insoluble cell portions. Samples of observed protein in the cellular pellets were analyzed for array formation by negative-stain Transmission Electron Microscopy (TEM). […] It is worth noting that 5/7 of the remaining fusions either shared a similar sequence and unknown but potentially similar structures (2 unpublished binding proteins) or were either the same molecular weight or much larger than the p3Z-42 monomer protein (3 proteins between ˜25-35 kDa).

[4] = target: the molecule itself; assay: self-assembly of trimers; cell-free expression, negative-stain EM
Experimental: (A) Design p3Z_42 expressed using an in vitro expression kit. This negative-stain micrograph was made 4 hours after adding pure plasmid DNA of p3Z_42 to the kit components without purification. A Fourier transform is shown from a crystal in the micrograph showing the same P 3 2 1 lattice as visualized in p3Z_42 E. coli expression. (B) Fast dilution re-folded p4Z_9 protein. Large arrays form analogous to those seen from E. coli expressed protein. A Fourier transform is shown highlighting the square lattice. (C) Dialysis re-folded p4Z_9 protein. Large fibrous structures form with the same square array pattern as in E. coli expressed proteins. Fourier transform is shown highlighting the square repeat pattern. (D) Purified and concentrated protein from p6_9H soluble fractions. Arrays were not visualized at this point. […] (E) p6_9H array formation from material as in (d). These arrays formed after further concentration of protein as in (d) and heat application in a water bath. […] Fourier transform is shown with the same P 6 arrangement seen in the pellet sample. Scale bars=50 nm.

[5] = target: the molecule itself; assay: self-assembly of fusion trimers; negative-stain EM

B1: p4Z_9 (designed binder)
chain: MEAVRAYELQLELQQIRTLRQSLELKAKELEYAAGIITSLKSERRIYRAFSDLLVEITKLEAIEHIARSIIVYVREIAKLAKRETEIMEELSKLRAPLSLE
notes: Designed self-assembling protein; tetramer (C4) that packs into a P 4 21 2 lattice; also called design p4Z_9
[1]
  binding result: binds

B2: p3Z_11 (designed binder)
chain: MEEVVLITVPSESVARIIAKALVASRLAACVNIVPGLTSIYRWQGSVVEDQELLLLVKTTTHAFPKLKHTVKIIHPYTVPEIVALPIAEGNREYLDWLRENTGLE
notes: Designed self-assembling protein; Expressed from pet29b in E. coli; also called design p3Z_11
[2]
  binding result: binds

B3: p3Z-42 Ferrodoxin fusion (designed binder)
chain: MLTVEVEVKITADDENKAEEIVKRVIDEVEREVQKQYPNATITRTLTRDDGTVELRIKVKADTEEKAKSIIKLIEERIEEELRKRDPNATITRTVRTEVGSSWSGSGSGGMHNNRLQLSRLERVYQSEQAEKLLLAGVMLRDPARFDLRGSLTHGRDVEIDTNVIIEGNVSLGNRVKIGTGCVIKNSAIGDDCEISPYTVVEDAVLAAACTIGPFARLRPGAVLLEGAHVGNFVEMKKAVLGKGSKAGHLTYLGDAAIGDNVNIGAGTITCNYDGANKFTTIIGDDVFVGSDTQLVAPVSVGKGATIAAGTTVTRNVGANALAISRVPQTQKEGWRRPVKKK
[3]
  binding result: binds

B4: p3Z_42 (designed binder)
chain: MHNNRLQLSRLERVYQSEQAEKLLLAGVMLRDPARFDLRGSLTHGRDVEIDTNVIIEGNVSLGNRVKIGTGCVIKNSAIGDDCEISPYTVVEDAVLAAACTIGPFARLRPGAVLLEGAHVGNFVEMKKAVLGKGSKAGHLTYLGDAAIGDNVNIGAGTITCNYDGANKFTTIIGDDVFVGSDTQLVAPVSVGKGATIAAGTTVTRNVGANALAISRVPQTQKEGWRRPVKKKLE
notes: Designed self-assembling protein; beta-helix trimer (C3) that packs into a P 3 2 1 lattice; Expressed from pet29b in E. coli or with a cell-free kit; also called design p3Z_42
[4]
  binding result: binds

B5: p3Z-42 TDRD2 fusion (designed binder)
chain: MGSRSLQLDKLVNEMTQHYENSVPEDLTVHVGDIVAAPLPTNGSWYRARVLGTLENGNLDLYFVDFGDNGDCPLKDLRALRSDFLSLPFQAIECSGSGSGGMHNNRLQLSRLERVYQSEQAEKLLLAGVMLRDPARFDLRGSLTHGRDVEIDTNVIIEGNVSLGNRVKIGTGCVIKNSAIGDDCEISPYTVVEDAVLAAACTIGPFARLRPGAVLLEGAHVGNFVEMKKAVLGKGSKAGHLTYLGDAAIGDNVNIGAGTITCNYDGANKFTTIIGDDVFVGSDTQLVAPVSVGKGATIAAGTTVTRNVGANALAISRVPQTQKEGWRRPVKKK
[5]
  binding result: binds

Source: patent US20160369264A1 (HOWARD HUGHES MEDICAL INSTITUTE, published 2016)
